Source: publication PMC7948426

Molecular target: NES–Venus–mGsi (nuclear export sequence–Venus–mini G protein mGsi)
Experiment: BRET with mini G protein V-mGsi (net BRET pH profile)
Conditions: read off a plot
[1] = 150 mM K+ (no Na+), pH 6.5 point
[2] = 150 mM K+ (no Na+), pH 8.5 point

response [1] [netBRET]	response [2] [netBRET]	response (150 mM Na+, pH 6.5 point) [netBRET]	response (150 mM Na+, pH 8.5 point) [netBRET]	Substance
0.029	0.026	0.028	0.018	GPR68–Rluc8 (wild type) (from UniProt Q15743) E149Q
0.063	0.052	0.06	0.034	GPR65–Rluc8 (wild type) (from UniProt Q8IYL9) E142Q
0.032	0.023	0.032	0.013	GPR4–Rluc8 (wild type) (from UniProt P46093) E145Q
0.033	0.019	0.032	0.02	GPR65–Rluc8 (wild type) (from UniProt Q8IYL9) D60N; D286N
0.0073	0.0037	0.006	0.0023	GPR68–Rluc8 (wild type) (from UniProt Q15743) D67N; D282N
0.0057	0.0026	0.0068	0.0022	GPR4–Rluc8 (wild type) (from UniProt P46093) D63N; D282N
